Test results published in PMC3135172 (Cell, 2011).
Where no end group is shown, it is not given here.

Molecular target: BPTF bromodomain (human)
Assay: ITC

Work on GKGLGK(Ac)GGAKR (not fully specified) [H4K12ac peptide] yielded a Kd of 69 ± 1 µM.
